Values of other authors, collected in US20200031943A1 (priority 2017, published 2020).
Read-outs that look alike come from different tables or passages of the source.

Details: for percentage of patients reported as developing influenza / upper respiratory infections (percentage of patients): SLE patients; for percentage of patients reported as developing influenza: placebo 2.0%; for upper respiratory infections (percentage of patients): placebo 28.7%
[1] = 300 mg intravenous every 4 weeks for 48 weeks
[2] = 1,000 mg intravenous every 4 weeks for 48 weeks

Substance: anifrolumab
- percentage of patients reported as developing influenza [1]: 6.1%
- upper respiratory infections (percentage of patients) [1]: 36.4%
- incidence of serious adverse events (300 mg or 1,000 mg intravenous every 4 weeks for 48 weeks vs placebo): did not increase the incidence of serious adverse events
- percentage of patients reported as developing influenza [2]: 7.6%
- upper respiratory infections (percentage of patients) [2]: 41.9%
- frequency of herpes zoster and influenza infections (anifrolumab-treatment group vs placebo): slightly more frequent
